Experimental data from US7390643B2, “Geranyl diphosphate synthase molecules, and nucleic acid molecules encoding same” (Washington State University Research Foundation, priority 2002, dated 2008).
“Also recorded” adds a separate entry of the source.

B1: GGPPS: recombinant geranylgeranyl diphosphate synthase from grand fir, truncated, His6-tagged, SEQ ID NO:26 (protein)
chain: MFDFKEYLRSKAMAVNEALDRAVPLRYPERIHEAMRYSLLAGGKRVRPVLCISACELVGGTEEVAMPTACAMEMIHTMSLIHDDLPCMDNDDFRRGKPTNHKVFGEGTAILAGDALLSFAFEHIAVSTSKSVGTDRILRVVSELGRTIGSQGLVGGQVADITSEGDASVDLDTLEWIHIHKTAVLLECSVMCGAIISGASDNEIERIQRYARSVGLLFQVVDDILDVTKSSKELGKTAGKDLISDKATYPKLMGLEKAKQFASDLLIRAKEDLSCFDPMKAAPLLGLADYIAFRQNLEHHHHHH
modifications: His6 tag; Abies Grandis
B2: AgGPPS1: recombinant geranyl diphosphate synthase from Grand fir (Abies grandis), truncated, His6-tagged, SEQ ID NO:16 (protein)
chain: MFDFKEYLHSKAISVNEALERAVPLRYPEKIHEAMRYSLLAGGKRIRPILTIAACELVGGSEELAMPTACAMEMIHTMSLIHDDLPSMDNDDLRRGKLTNHKVFGEGTAVLAGDALLSFAFEHIAVSTRKTVASHRVLRVVSELGKAIGSQGVAGGQVADITSEGDPSVGLETLEWIHIHKTAVLLECAVVSGAIIGGASENEIERTGRYARCVGLLFQVVDDILDVTRSSEELGKTAGKDLVSDKATYPKLMGLEKAKEFADELLDRAKEELSCFNPAKAAPLLGLADYIALRQNLEHHHHHH
modifications: His6 tag; Abies Grandis
B3: AgGPPS2: recombinant geranyl diphosphate synthase from Grand fir (Abies grandis), truncated, His6-tagged, SEQ ID NO:12 (protein)
chain: MFDFNKYMDSKAMTVNEALNKAIPLRYPQKIYESMRYSLLAGGKRVRPVLCIAACELVGGTEELAIPTACAIEMIHTMSLMHDDLPCIDNDDLRRGKPTNHKIFGEDTAVTAGNALHSYAFEHIAVSTSKTVGADRILRMVSELGRATGSEGVMGGQMVDIASEGDPSIDLQTLEWIHIHKTAMLLECSVVCGAIIGGASEIVIERARRYARCVGLLFQVVDDILDVTKSSDELGKTAGKDLISDKATYPKLMGLEKAKEFSDELLNRAKGELSCFDPVKAAPLLGLADYVAFRQNLEHHHHHH
modifications: His6 tag; Abies Grandis
B4: AgGPPS3: recombinant geranyl diphosphate synthase from Grand fir (Abies grandis), truncated, His6-tagged, SEQ ID NO:20 (protein)
chain: MFDFNKYMLSKAMAVTEALDKAIPHSYPQKIHESMRYSLLAGGKRVRPVLCIAACELVGGREELAMPTACAMEMIHTMSLIHDDLPCMDNDDLRRGKPTNHKVFGQDTALLAGDALHAFAFEHIVAFTSKSVGSDGILRAVTELARATGPQGIMGGQIVDIASERDAFVDLQTLEWIHIHKTAVLFECATVCGAIIGGASGDEIERIRRFARYLGLLFQVVDDILDVTKSSEDLGKTAGKDLVSDKATYPKLMGLEKAKGFSLELLNKAKEELSCFDPMKAAPLFGLADYMALRQNLEHHHHHH
modifications: His6 tag; Abies Grandis

What was measured:
[1] = system: presumptive prenyltransferases (GPP synthases and GGPP synthase) from grand fir; assay: Product determination and co-substrate selectivity assay ([4-14C]IPP plus allylic co-substrate, MgCl2; radio-GC of hydrolysed products); format: biochemical, Abies grandis; conditions: for product formed: radio-GC; for rate with GPP as allylic co-substrate in the production of FPP, relative to the rate with DMAPP: standard assay conditions
Text: Protein purification and product determination. The affinity-based purification procedure for His-tagged proteins has been described previously, as has the standard purification protocol for the corresponding non-tagged proteins (C. Burke and R. Croteau, J. Biol. Chem.277:3141-3149, 2002). The partial purification procedure for the native GPP synthase from A. grandis has also been reported previously (D. Tholl et al., Arch. Biochem. Biophys. 386:233-242, 2001). Procedures for polyclonal antibody preparation were as described previously (C. C. Burke et al., Proc. Natl. Acad. Sci. USA 96:13062-13067, 1999), in this case using the SDS-PAGE purified AgGPPS3 protein (SEQ ID NO:7) as antigen. The assay procedures and methods for product analysis were similar to those previously described (C. Burke and R. Croteau, J. Biol. Chem. 277:3141-3149, 2002), except that for radio-GC a Raga (Raytest) radio-detector connected in-line to a Series 600 (Gow-Mac) chromatograph was employed with a 5% phenyl polysiloxane (ZB-5; Phenomenex) capillary column under hydrogen gas flow (70° C. for 5 min. followed by an 8° C. per min. ramp to 240° C. for 5 min).
As might be expected based on prior experience, the full-length (preprotein) versions of these enzymes (SEQ ID NOS:3, 5, 7 and 22) were not efficiently expressed in soluble form and the bulk of the protein generated was in inclusion bodies. However, the truncated versions of these enzymes with the appended C-terminal His6-tag (SEQ ID NOS:12, 16, 20 and 26) readily afforded soluble protein that was affinity purified to >90% in amounts up to 6 mg/L. To define the function of these presumptive prenyltransferases, assays were conducted with the purified proteins (SEQ ID NOS:12, 16, 20 and 26) using [4-^14C]IPP and DMAPP as co-substrates and MgCl2 as cofactor. The resulting products were enzymatically hydrolyzed to the corresponding alcohols and analyzed by radio-GC. […] His-tagged AgGPPS1 (SEQ ID NO:16) and AgGPPS3 (SEQ ID NO:20) were able to accept GPP as the allylic co-substrate (110% the rate with DMAPP under standard assay conditions) in the production of FPP, and His-tagged AgGPPS3 (SEQ ID NO:20) could also efficiently utilize FPP as allylic co-substrate in the formation of GGPP (at about 50% the rate with DMAPP as co-substrate).

[2] = system: recombinant GPP synthases from grand fir; assay: Kinetic evaluation, standard prenyltransferase assay with purified recombinant His6-tagged GPP synthases; format: biochemical, Abies grandis
Protocol: Molecular weight determination and kinetic evaluation. The molecular weight of GPP synthase was determined by gel filtration chromatography on a calibrated XK 16/70 column of Superdex 200 (Amersham Biosciences) as previously described (C. Burke and R. Croteau, J. Biol. Chem. 277:3141-3149, 2002). For kinetic evaluation, the standard prenyltransferase assay was performed (C. Burke and R. Croteau, J. Biol. Chem. 277:3141-3149, 2002) but the reaction was terminated after 4 min. to ensure linearity in the rate measurements. For preparative incubations, the reaction time was extended to 8 min., and all assays contained from 0.25 to 1.0 μg of purified protein.
Kinetic characterization of the GPP synthases (SEQ ID NOS:12, 16, and 20). To compare substrate binding behavior and turnover rates of these grand fir GPP synthases (SEQ ID NOS:12, 16, and 20) to those of the Mentha synthase, kinetic constants were determined (Table 1).

[3] = [4-14C]IPP and DMAPP as co-substrates, MgCl2 as cofactor

Molecule | product formed [1, 3] | rate with GPP as allylic co-substrate in the production of FPP, relative to the rate with DMAPP [1] | KM(DMAPP) compared with the Mentha enzyme [2] | turnover rate compared with AgGPPS3 [2] | allylic co-substrate utilised [1] | turnover rate compared with the heterotetrameric Mentha GPP synthase [2] | rate with FPP as allylic co-substrate in the formation of GGPP, relative to the rate with DMAPP [1] | farnesyl diphosphate produced [1, 3]
B1 | predominately geranylgeranyl diphosphate as product with trace amounts of geranyl diphosphate |  |  |  |  |  |  | 
B2 | geranyl diphosphate as the major product | 110% | two-fold higher | four fold higher |  |  |  | 
B3 | geranyl diphosphate as the major product; also recorded: only GPP |  |  | four fold higher | only DMAPP | three-fold lower |  | 
B4 | geranyl diphosphate as the major product | 110% |  |  |  |  | about 50% | about 30%
